Results as given in KR20220054080A (dated 2022).
Changes are numbered by the printed parent chain. Where “and” joins values, the source holds several entries; their conditions need not be identical. Identical values can stand only once.

B1: SA3902 (antibody, V domains shown)
VH: QVQLVQSGAEVRQPGASVKVSCKTSGYAFSYYHIHWVRQAPGQGLEWMGLINPGSGGTNYAQKFQGRVTLTRDTSTSTVYMDLTGLRSEDTAVYYCAGSEQPHYYANGAYRVWGQGTLVTVSS
VL: DIQMTQSPSTLSASVGDRVTITCRASQSISSYLNWYQQKPGKAPKLLIYEVSTLESGVPSRFSGSRSGTEFTLTISSLQPDDFATYYCQQYDTFGGGTKVEIK
B2: SA3856 (antibody, V domains shown)
VH: QMQLVESGGGLIQPGGSLRLSCAASGFTVTSAYMSWVRQAPGKGLEWVSIIYGGGSTYYADSVKGRFTISRDNSKNTLYLQMNSLRAEDTAVYYCTGPYPGRYDYWGRGTLVTVSS
VL: DIQMTQSPSSLSASVGDRVIITCRASQDIRTSLAWFQQRLGEAPRSLIYDASSLQNGVPSKFRGSGSGTDFTLTISSLQPEDFATYYCQQYKTVPLTFGGGTKVEIK
B3: SA4055 (antibody, V domains shown)
VH: EVQLVQSGGGLVQPGGSLRLSCAASVITVSSNYMSWVRQAPGKGLEWVSVIYPGGSTYYADSVKGRFTISRDKSKNTLYLQMNSLRAEDTAVYYCARDLDIVGGMDVWGQGTTVTVSS
VL: QSALTQPASVSGSPGQSITISCTGTSSDVGDYNLVSWYQQHPGKAPKVMIYDVSHRPSGVSNRFSGSKSGNTASLTISGLQAEDEADYYCSSYTSSTTVVFGGGTKLTVL
B4: SA4056 (antibody, V domains shown)
VH: B3 VH with E1Q, V5Q, Q6E
VL: DIQMTQSPSTLSASVGDRVTITCRASQSISRWLAWYQQKPGQAPKLLIYAASTLQSGVPSRFSGSGSGTEFTLTISSLQPDDFATYYCQQYDSYPRTFGQGTKVDIK
B5: SA4043 (antibody, V domains shown)
VH: B3 VH with E1Q, V5Q, Q6E
VL: B4 VL
B6: SA4057 (antibody, V domains shown)
VH: B3 VH
VL: QLVLTQPPSVSGAPGQRVTISCTGSSSNIGAPHDVHWYQQLPGTAPRLLIYANNNRPSGVPDRFSGSKSGTSASLAITGLQDEDEADYYCQSYDSSLRAYVFGTGTKVTVL
B7: SA4053 (antibody, V domains shown)
VH: EVQLVQSGGGLVQPGGSLRLSCADSGFTFSSYWMSWVRQVPGKGLEWVANIKQDGSEKYYVDSVKGRFTISRDNAKNSLYLQMNSLRAEDTAVYYCARDVGRGYCSSTSCYRFGGREDFFDYWGQGTLVTVSS
VL: QLVLTQPPSVSAAPGQRVTISCSGSFSNVGNNFVSWYRHLPGTAPELLIYDNNQRPSGIPDRFSASKSGTSATLAITGLHTGDEADYYCGTWDTSLSGVVFGGGTKLTVL
B8: SA3830 (antibody, V domains shown)
VH: QVQLVESGGGLIQPGRSLSLSCAASGFNFDEYSMHWVRQRPGKGLEWVSGIKYNSNTILYADSVKGRFTVSRDNSKNSLYLQMNSLRAEDTAVYYCARDAMRGGDFDHWGQGTLITVSS
VL: DIQMTQSPSYLSASAGDRVTITCRASQSISDWLAWYQHKPGKAPKLLIYKASRLENGVPSRFRGSGSATDFTLTISSLQAEDVAVYYCQQYYSTTWTFGQGTKVDIK
B9: SA4050 (antibody, V domains shown)
VH: QVQLVESGAEVKKPGASVKVSCKASGYTFTGYFIHWVRQAPGQGLEWMGWINPNSGGTNYAQKFQGRVTMTRDTSISTAYMELSRLRSDDTAVYYCARVPHLSGYYYEGVLGYFDYWGQGTLVTVSS
VL: QSALTQPASVSGSPGQSITISCTGTSIDIGSYNFVSWYQRHPGKAPRLLIYDVSDRPSGVSNRFSGSKSANTASLTISGLQAEDEADYYCSSYTSSSLWVFGGGTKLTVL
B10: SA4044 (antibody, V domains shown)
VH: EVQLVQSGGGLIQPGGSLRLSCAASGFTVSSNYMSWVRQAPGKGLEWVSVIYSGGSTYYADSVKGRFTISRDNSKNTLHLQMNSLRAEDTAVYYCARDLPQFDGFDYWGQGTLVTVSS
VL: QSALTQPPSLSVAPGRTARITCGGNNIGSKSVNWYQHMPGQAPVLVIYSDTDRPSGIPERVSGSKSGNTATLSISRVEAGDEADYYCQVWDSTTDHVVFGGGTKLTVL
B11: SA4040 (antibody, V domains shown)
VH: EVQLVQSGAEVKKPGASVKVSCKASGYTFTGYYMHWARQAPGQGLEWMGWINPNSGGTNYAQKFQGRVTMTRDTSITTAYMELSRLTSDDTAVYYCARDQAFSMVRGVTDYWGQGTLVTVSS
VL: QSALTQPPSASGSPGQSVIISCTGSSSDVGGYNYVAWYQQYPGAAPKLIISEVTKRPSGVPDRFSGSKSGNTASLTISGLQAEDEANYYCSSYAGDNTWIFGGGTKLTVL

Molecular target: SARS-CoV 스파이크 [change] (#40150-V08B1, Sino Biological) (SARS-CoV, UniProt P59594 14-667)
Test: ELISA, coated S1-His

Binder	binding result
B1	no binding (tested: 50 nM)
B2	no binding (tested: 50 nM)
B3	no binding (tested: 50 nM)
B4	no binding (tested: 50 nM)
B5	no binding (tested: 50 nM)
B6	no binding (tested: 50 nM)
B7	no binding (tested: 50 nM)
B8	no binding (tested: 50 nM)
B9	no binding (tested: 50 nM)
B10	no binding (tested: 50 nM)
B11	no binding (tested: 50 nM)

Molecular target: SARS-CoV-2 RBD-hFc (SARS-CoV-2, UniProt P0DTC2 319-541)
Test: cell-based or functional assay

Binder	IC50, 세포내 유입(internalization) 억제, HEK293E/ACE2-GFP [nM]
B1	14.9
B2	11.9
B3	37.1
B4	28.1
B5	12.8
B6	28.1
B7	62.7
B8	13.5
B9	36.9
B10	39.2
B11	30.8

Molecular target: T1, SARS-CoV-2 spike protein on live SARS-CoV-2 virus (SARS-CoV-2, UniProt P0DTC2 14-1273)
Test: cell-based or functional assay

Binder	IC50, live SARS-CoV-2 미세중화분석, Vero 세포 [nM]
B1	37.3
B2	137
B3	7
B4	11.3
B5	12.5
B6	37.5
B7	346
B8	231
B9	0.71
B10	80.5
B11	8.14

Molecular target: T1, SARS-CoV-2 spike protein on live …
Test: cell-based or functional assay
Remark: another data set of the same source

Binder	IC50, live SARS-CoV-2 미세중화분석, Vero 세포, 72시간
B3	3.22 nM and 4.51 nM

Molecular target: SARS-CoV RBD-His (#40150-V08B2, Sino Biological) (SARS-CoV, UniProt P59594 306-527)
Test: ELISA, coated His-tagged antigen

Binder	binding result
B1	no binding
B2	no binding
B3	no binding
B4	no binding
B5	no binding
B6	no binding
B7	no binding
B8	no binding
B9	no binding
B10	no binding
B11	no binding

Molecular target: T2, SARS-CoV-2 RBD-mFc (SARS-CoV-2, UniProt P0DTC2 319-541)
T2 construct: range 319-541
Test: Octet QKe BLI, 1:1 global fit

Binder	Kd [nM]	koff [s⁻¹]	kon [M⁻¹ s⁻¹]
B1	0.328	8.12e-05	247000
B2	0.0888	4.3e-05	484000
B3	0.061	2.36e-05	387000
B4	0.0907	4.32e-05	477000
B6	0.0284	4.96e-06	175000
B7	0.689	0.000218	316000
B8	0.782	0.000702	897000
B9	0.0929	4.67e-05	503000
B11	0.384	0.000181	471000

Molecular target: T3, SARS-CoV-2 스파이크 S1-mFc (SARS-CoV-2, UniProt P0DTC2 16-685)
T3 construct: range 16-685
Test: competition ELISA: S1-mFc on coated ACE2-His

Binder	IC50 [nM]
B1	3.85
B2	2.11
B3	1.88
B4	1.4
B5	1.43
B7	22
B8	1.86
B9	1.45
B10	13.6
B11	3.1

Molecular target: T2, SARS-CoV-2 RBD-mFc
Test: competition ELISA: RBD-mFc on coated ACE2-His

Binder	IC50 [nM]
B1	12.4
B2	25.1
B3	0.144
B4	1.86
B5	1.76
B6	4.81
B7	40.6
B8	10.2
B9	3.14
B10	58.3
B11	25.3

Molecular target: T2, SARS-CoV-2 RBD-mFc
Test: flow cytometry competition: RBD-mFc on HEK293E/ACE2 cells

Binder	IC50 [nM]
B1	1.75
B2	2.67
B3	2.9
B4	2.19
B5	1.69
B6	4.13
B7	2.21
B8	2.57
B9	2.93
B10	2.21
B11	1.59
